Data on two molecules can be found in USRE41461E1, “Purification, composition and specificity of Heparinase I, II, and III from Flavobacterium heparinum” (Massachusetts Institute of Technology, priority 1992, dated 2010).

Where two headings read alike, the source gives them in different places.

A short description of data set [1]: Heparin lyase activity assay (change of absorbance at 232 nm), heparan sulfate as substrate. The format is biochemical. Conditions: for Unit/mg (specific activity): final GPC-HPLC purification step, acting on heparan sulfate; for average number of sites acted at in the heparan sulfate polymer: final level of depolymerization, 24 h; for initial activity in six buffers (Tris-HCl, sodium phosphate, HEPES, MOPS, TES, BTP-HCl): 50 mM buffer at optimum pH; for temperature for maximum activity: 50 mM sodium phosphate at optimum pH, 15-55° C.; for optimum temperature (summary): activity greater at higher temperatures but stability reduced; for Vmax: optimized conditions; for pH optimum for activity: on heparan sulfate; for specific activity: purified lyase, toward heparan sulfate. Here is the method: (§1) The spectrophotometer was adjusted to the optimum temperature of the particular lyase being assayed. […] A measured quantity of lyase was added, bringing the final volume to 400 μl and the cuvette was gently mixed. The microcuvette was then immediately returned to the spectrophotometer and the change of absorbance at 232 nm was measured at 10 seconds intervals over 3 min. […] The specific activity was then calculated by dividing the micromoles of product produced per minute by the milligrams of protein in the cuvette. […] G., and Linhardt, R. J. (1989) Carbohydr. Res. 190, 219-233. Protein concentration was measured by the Bradford assay, Bradford, M. M. (1976) Anal. Biochem. 72, 248-254, based on a bovine serum albumin standard curve. […] The activities of each lyase (I acting on heparin, II acting on both heparin and heparan sulfate, and III acting on heparan sulfate) were then determined at different pH values. The buffer giving optimum activity for each heparin lyase was selected by testing buffers with buffering capacity near the pH optima calculated in the previous experiments. These buffers were: Tris-HCl, sodium phosphate, HEPES, MOPS, TES, and BTP-CHl. […] The heparin lyase assay solutions were made by diluting enzyme in 50 mM sodium phosphate buffer adjusted to the appropriate pH as previously described. Heparin lyase activity was determined in each buffer. Activity was assayed both immediately after addition to each buffer and following incubation for 24 h at 37° C. The salt concentration for optimum activity was investigated. Sodium chloride, potassium chloride, and sodium and potassium acetate were used to differentiate between ionic strength and specific ion affects. […] The temperature was adjusted in a temperature-regulated spectrophotometer and equilibrated for 10 min before the assay was started. Michaelis-Menten constants were determined using the optimized conditions. The final absorbance value for total depolymerization was divided by 20 to find a value that represented 5% reaction completion. The purified lyase preparations were diluted so that 5% of total depolymerization would be reached only at the end of a 3-min assay. The reaction velocities at specific molar concentrations for each lyase and their substrates were used for kinetic analysis using EZ-FIT hyperbolic curve-fitting program of […]. (1988) Anal. Biochem. 174, 437-447). Substrate solutions were prepared from 50 mg/ml heparin and 40 mg/ml for heparan sulfate stock solutions. […] The amount of purified lyase used was sufficient for complete depolymerization of heparin or heparan sulfate substrates within 30 min. The initial rate of depolymerization of each polysaccharide was measured, the reaction was then continued for 24 h, and the final level of polysaccharide depolymerization was assessed by measuring the final absorbance at 232 nm and expressed as percent activity.

Data set [2] can be described thus: Temperature stability of lyase activity. The format is physicochemical. Conditions: for time in which 80% of activity was lost: protein 650 ng/ml. Here is the method: Lyase assay stock solutions were prepared in the appropriate buffer and placed in water baths at the following temperatures: heparin lyase I at 30° C., heparin lyase II at 35° C., and heparin lyase III at both 35° and 40° C. […]

Data set [3] can be described thus: Heparin lyase activity assay (change of absorbance at 232 nm), heparin as substrate. Format: biochemical, porcine. Here is the method:
as §1

The conditions of data set [4]: Rice and Lindhardt (1989), cited from earlier work.
Where [5] appears, read: heparan sulfate, II: 35° C., pH 6.9, III: 35° C., pH 7.6, value ± standard error, read-out: Km(app).
The mark [6] stands for this setting: heparan sulfate, value ± standard error.
Where [7] appears, read: with heparan sulfate, read-out: Km (Michelis-Menton constant, summary).

B1: Heparin lyase II: heparin lyase II (heparinase II, no EC number) purified to homogeneity from Flavobacterium heparinum (protein, UniProt C6XZB6 26-772, looked up)
Heparin and heparin-sulfate …: QTKADVVWKDVDGVSMPIPPKTHPRLYLREQQVPDLKNRMNDPKLKKVWADMIKMQEDWKPADIPEVKDFRFYFNQKGLTVRVELMALNYLMTKDPKVGREAITSIIDTLETATFKPAGDISRGIGLFMVTGAIVYDWCYDQLKPEEKTRFVKAFVRLAKMLECGYPPVKDKSIVGHASEWMIMRDLLSVGIAIYDEFPEMYNLAAGRFFKEHLVARNWFYPSHNYHQGMSYLNVRFTNDLFALWILDRMGAGNVFNPGQQFILYDAIYKRRPDGQILAGGDVDYSRKKPKYYTMPALLAGSYYKDEYLNYEFLKDPNVEPHCKLFEFLWRDTQLGSRKPDDLPLSRYSGSPFGWMIARTGWGPESVIAEMKVNEYSFLNHQHQDAGAFQIYYKGPLAIDAGSYTGSSGGYNSPHNKNFFKRTIAHNSLLIYDPKETFSSSGYGGSDHTDFAANDGGQRLPGKGWIAPRDLKEMLAGDFRTGKILAQGFGPDNQTPDYTYLKGDITAAYSAKVKEVKRSFLFLNLKDAKVPAAMIVFDKVVASNPDFKKFWLLHSIEQPEIKGNQITIKRTKNGDSGMLVNTALLPDAANSNITSIGGKGKDFWVFGTNYTNDPKPGTDEALERGEWRVEITPKKAAAEDYYLNVIQIADNTQQKLHEVKRIDGDKVVGVQLADRIVTFSKTSETVDRPFGFSVVGKGTFKFVMTDLLPGTWQVLKDGKILYPALSAKGDDGALYFEGTEGTYRFLR
As to B1, the “initial rate on heparan sulfate relative to heparin” value in data set [1] came out at 1.7 times. In addition, the “Unit/mg (specific activity)” value is 36.5 Unit/mg in data set [1] and 19 Unit/mg in data set [3] (final GPC-HPLC purification step, acting on heparin). For the same molecule, in data set [1], the “average number of sites acted at in the heparan sulfate polymer” value is 25 sites. In addition, the “initial activity in six buffers (Tris-HCl, sodium phosphate, HEPES, MOPS, TES, BTP-HCl)” value is “marked reduction of activity in MOPS, TES, and HEPES” in data set [1] (heparan sulfate); “remarkably similar in all six buffers” in data set [3] (heparin, 50 mM buffer at optimum pH). Besides, the “temperature for maximum activity” value in data set [1] (heparan sulfate) came out at 40 °C; in data set [3] (heparin, 50 mM sodium phosphate at optimum pH, 15-55° C.) it was 40 °C. Moreover, the Michaelis-Menten constant (Km) in data set [1] (setting [5]) was found to be 11.2 ± 2.18 µM; in data set [1] (setting [7]), 43.4 µM; in data set [3] (heparin, I: 30° C., pH 7.15, 100 mM sodium chloride, II: 35° C., pH 7.3, value ± standard error, read-out: Km(app)), 57.7 ± 6.56 µM; in data set [3] (with heparin, read-out: Km (Michelis-Menton constant, summary)), 9.23 µM. Also, the “optimum temperature (summary)” value came to 35 °C in data set [1] (heparan sulfate) and 35 °C in data set [3] (heparin, activity greater at higher temperatures but stability reduced). Moreover, the Vmax amounted to 28.6 ± 1.26 μmol/min mg protein in data set [1] (setting [6]) and 16.7 ± 0.555 μmol/min mg protein in data set [3] (heparin, optimized conditions, value ± standard error). Also, the “pH optimum for activity” value in data set [1] is 6.9; in data set [3] (on heparin), 7.3. In addition, the specific activity in data set [1] is listed as 36.5 units/mg; in data set [3] (purified lyase, toward heparin), 19 units/mg. Besides, the entries for the “Km (Michelis-Menton constant, summary)” value in data set [1] (with heparan sulfate) and in data set [3] (with heparin) were 0.869 mg/mL and 0,129 mg/ml, respectively. Further, the results for the “V(max) (summary)” value in data set [1] (with heparan sulfate) and in data set [3] (with heparin) were 46.95 and 15.04, respectively. Besides, in data set [2] (25 h at 35° C., protein 1-2 μg/ml, on both heparin and heparan sulfate), the activity retained is recorded as 70%. Besides, the “average number of sites acted at in the heparin polymer” value in data set [3] (final level of depolymerization, 24 h) turned out to be 14 sites.

B2: Heparin lyase III: heparin lyase III (heparitinase EC 4.2.2.8) purified to homogeneity from Flavobacterium heparinum (protein, UniProt Q59289 25-659, looked up)
Heparin-sulfate lyase: QSSSITRKDFDHINLEYSGLEKVNKAVAAGNYDDAAKALLAYYREKSKAREPDFSNAEKPADIRQPIDKVTREMADKALVHQFQPHKGYGYFDYGKDINWQMWPVKDNEVRWQLHRVKWWQAMALVYHATGDEKYAREWVYQYSDWARKNPLGLSQDNDKFVWRPLEVSDRVQSLPPTFSLFVNSPAFTPAFLMEFLNSYHQQADYLSTHYAEQGNHRLFEAQRNLFAGVSFPEFKDSPRWRQTGISVLNTEIKKQVYADGMQFELSPIYHVAAIDIFLKAYGSAKRVNLEKEFPQSYVQTVENMIMALISISLPDYNTPMFGDSWITDKNFRMAQFASWARVFPANQAIKYFATDGKQGKAPNFLSKALSNAGFYTFRSGWDKNATVMVLKASPPGEFHAQPDNGTFELFIKGRNFTPDAGVFVYSGDEAIMKLRNWYRQTRIHSTLTLDNQNMVITKARQNKWETGNNLDVLTYTNPSYPNLDHQRSVLFINKKYFLVIDRAIGEATGNLGVHWQLKEDSNPVFDKTKNRVYTTYRDGNNLMIQSLNADRTSLNEEEGKVSYVYNKELKRPAFVFEKPKKNAGTQNFVSIVYPYDGQKAPEISIRENKGNDFEKGKLNLTLTINGKQQLVLVP
Regarding B2, in data set [1], the “Unit/mg (specific activity)” value amounted to 63.5 Unit/mg, the “average number of sites acted at in the heparan sulfate polymer” value is 20 sites, the “pH optimum for activity” value is given as 7.6 and the specific activity amounted to 63.5 units/mg. In data set [1] (heparan sulfate), the “initial activity in six buffers (Tris-HCl, sodium phosphate, HEPES, MOPS, TES, BTP-HCl)” value is given as “only slight differences in activity”; the “temperature for maximum activity” value came out at 45 °C; the “optimum temperature (summary)” value turned out to be 35 °C. The Km in data set [1] (setting [5]) was determined as 29.4 ± 3.16 µM. Besides, the Vmax in data set [1] (setting [6]) was found to be 141 ± 3.88 μmol/min mg protein. For the same molecule, in data set [1] (with heparan sulfate), the “Km (Michelis-Menton constant, summary)” value was 0.780 mg/mL and the “V(max) (summary)” value is on record as 277.01. Moreover, the Michaelis constant (Km) in data set [1] (setting [7]) is 110 µM. Besides, in data set [4], the “Vmax (reported)” value is 0.00357 µmol/min. In data set [4] (read-out: apparent Km (reported)), the Km is 5.7 µM. In addition, the “time in which 80% of activity was lost” value in data set [2] (35° C.) stood at 3.5 h. Also, in data set [2] (40° C.), the “time in which 80% of activity was lost” value is on record as 0.5 h.

Usually Km stands for the concentration of substrate that gives half-maximal velocity.
